From publication PMC5399183

Biological target: Recombinant human integrin αvβ5 (human) (UniProt P06756)
Chain of UniProt P06756 (P06756 31-1048, chain 1 of 2): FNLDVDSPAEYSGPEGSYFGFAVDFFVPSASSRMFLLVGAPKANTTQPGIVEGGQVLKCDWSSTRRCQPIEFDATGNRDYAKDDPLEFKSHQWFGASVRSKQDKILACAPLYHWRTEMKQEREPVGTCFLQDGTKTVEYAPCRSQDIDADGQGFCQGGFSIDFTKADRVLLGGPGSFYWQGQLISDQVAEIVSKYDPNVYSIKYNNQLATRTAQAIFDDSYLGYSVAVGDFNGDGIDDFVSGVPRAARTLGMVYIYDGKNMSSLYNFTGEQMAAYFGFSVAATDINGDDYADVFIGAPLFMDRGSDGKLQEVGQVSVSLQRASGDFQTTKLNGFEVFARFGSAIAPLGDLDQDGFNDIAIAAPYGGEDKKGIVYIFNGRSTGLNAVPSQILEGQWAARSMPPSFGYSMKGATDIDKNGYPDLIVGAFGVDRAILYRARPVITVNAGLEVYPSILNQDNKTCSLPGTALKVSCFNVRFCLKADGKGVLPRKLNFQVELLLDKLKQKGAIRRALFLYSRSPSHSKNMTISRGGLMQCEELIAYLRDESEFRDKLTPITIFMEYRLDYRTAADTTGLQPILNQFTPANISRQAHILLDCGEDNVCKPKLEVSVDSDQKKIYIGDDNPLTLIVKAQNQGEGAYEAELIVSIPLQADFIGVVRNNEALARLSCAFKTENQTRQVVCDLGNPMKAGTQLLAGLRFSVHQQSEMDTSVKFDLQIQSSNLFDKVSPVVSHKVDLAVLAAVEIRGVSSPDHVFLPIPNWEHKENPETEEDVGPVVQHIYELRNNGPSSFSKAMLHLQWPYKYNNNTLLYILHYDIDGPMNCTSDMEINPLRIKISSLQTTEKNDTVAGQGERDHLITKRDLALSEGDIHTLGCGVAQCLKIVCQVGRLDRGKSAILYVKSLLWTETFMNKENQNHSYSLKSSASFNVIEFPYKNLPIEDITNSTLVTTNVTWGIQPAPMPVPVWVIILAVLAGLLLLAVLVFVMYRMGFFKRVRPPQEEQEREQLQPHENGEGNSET
Chain of UniProt P06756 (P18084 24-719, chain 2 of 2, further chain): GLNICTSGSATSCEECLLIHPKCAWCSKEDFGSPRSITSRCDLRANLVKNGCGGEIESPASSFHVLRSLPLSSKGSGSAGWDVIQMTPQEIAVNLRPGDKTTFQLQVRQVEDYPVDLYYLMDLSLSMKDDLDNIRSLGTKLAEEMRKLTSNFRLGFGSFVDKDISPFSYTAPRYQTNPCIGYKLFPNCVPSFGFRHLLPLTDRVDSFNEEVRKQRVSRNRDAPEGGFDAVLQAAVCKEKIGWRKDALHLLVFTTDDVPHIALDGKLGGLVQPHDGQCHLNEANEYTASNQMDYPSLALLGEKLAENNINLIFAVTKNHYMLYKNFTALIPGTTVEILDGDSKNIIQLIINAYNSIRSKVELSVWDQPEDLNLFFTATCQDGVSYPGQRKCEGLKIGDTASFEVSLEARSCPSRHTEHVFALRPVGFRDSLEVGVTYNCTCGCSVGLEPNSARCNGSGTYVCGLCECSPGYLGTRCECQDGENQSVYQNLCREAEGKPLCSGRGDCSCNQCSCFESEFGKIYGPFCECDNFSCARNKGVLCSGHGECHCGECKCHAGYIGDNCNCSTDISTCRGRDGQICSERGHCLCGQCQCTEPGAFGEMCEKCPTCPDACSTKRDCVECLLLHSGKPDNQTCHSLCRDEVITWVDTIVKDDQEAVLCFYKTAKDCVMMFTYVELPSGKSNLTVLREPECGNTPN

Substance: Recombinant human angiopoietin 2 (from UniProt O15123 19-496) (ligand)
- Ang2-induced astrocyte apoptosis under high glucose (annexin-V/PI FACS, 48 h, percentage of apoptotic cells) with anti-integrin αvβ5 blocking antibody (10 μg/ml): 19.3%
